B1: 256 (protein)
chain: LDNGLARTPTMGWLHWERFMCNLDCQEEPDSCISEKLFMEMAELMVSEGWKDAGYEYLCIDDCWMAPQRDSEGRLQADPQRFPHGIRQLANYVHSKGLKFGIYADVGNKTCAGFPGSFGYYDIDAQTFADWGVDLLKFDGCYCDSLENLADGYKHMSLALNRTGRSIVYSCEWPLYMWPFQKPNYTEIRQYCNHWRNFADIDDSWASVKSILDWTSFNQEKIVDVAGPGGWNDPDMLVIGNFGLSWDQQVTQMALWAIMAAPLFMSNDLRHISPQAKALLQDKDVIAINQDPLGKQGYQLRKGDNFEVWERPLSGLAWAVAVINRQEIGGPRSYTIAVASLGDGVACNPACFITQLLPVKRKLGLYEWTSRLRSHVNPTGTVLLQLENTMQMSLKDLL
modifications: Synthetic Polypeptide sequence of Variant No. 256 of mature Human GLA
B2: 261 (protein)
chain: LDNGLARTPTMGWLHWERFMCNLDCQEEPDSCISEKLFMEMAELMVSEGWKDAGYEYLCIDDCWMAPQRDSEGRLQADPQRFPHGIRQLANYVHSKGLKFGIYADVGNKTCAGFPGSFGYYDIDAQTFADWGVDLLKFDGCYCDSLENLADGYKHMSLALNRTGRSIVYSCEWPLYMWPFQKPNYTEIRQYCNHWRNFADIDDSWASIKSILDWTSFNQEKIVDVAGPGGWNDPDMLVIGNFGLSWDQQVTQMALWAIMAAPLFMSNDLRHISPQAKALLQDKDVIAINQDPLGKQGYQLRQGDNFEVWERPLSGLAWAVAVINRQEIGGPRSYTIAVASLGDGVACNPACFITQLLPVKRKLGFYEWTSRLRSHVNPTGTVLLQLENTMQMSLKDLL
modifications: Synthetic Polypeptide sequence of Variant No. 261 of mature Human GLA
B3: 258 (protein)
chain: LDNGLARTPTMGWLHWERFMCNLDCQEEPDSCISEKLFMEMAELMVSEGWKDAGYEYLCIDDCWMAPQRDSEGRLQADPQRFPHGIRQLANYVHSKGLKFGIYADVGNKTCAGFPGSFGYYDIDAQTFADWGVDLLKFDGCYCDSLENLADGYKHMSLALNRTGRSIVYSCEWPLYMWPFQKPNYTEIRQYCNHWRNFADIDDSWASVKSILDWTSFNQETIVDVAGPGGWNDPDMLVIGNFGLSWNQQVTQMALWAIMAAPLFMSNDLRHISPQAKALLQDKDVIAINQDPLGKQGYQLRKGDNFEVWERPLSGLAWAVAIINRQEIGGPRSYTIAVASLGDGVACNPACFITQLLPVKRKLGFYEWTSRLRSHVNPTGTVLLQLENTMQMSLKDLL
modifications: Synthetic Polypeptide sequence of Variant No. 258 of mature Human GLA
B4: 259 (protein)
chain: LDNGLARTPTMGWLHWERFMCNLDCQEEPDSCISEKLFMEMAELMVSEGWKDAGYEYLCIDDCWMAPQRDSEGRLQADPQRFPHGIRQLANYVHSKGLKFGIYADVGNKTCAGFPGSFGYYDIDAQTFADWGVDLLKFDGCYCDSLENLADGYKHMSLALNRTGRSIVYSCEWPLYMWPFQKPNYTEIRQYCNHWRNFADIDDSWASIKSILDWTSFNQERIVDVAGPGGWNDPDMLVIGNFGLSWNQQVTQMALWAIMAAPLFMSNDLRHISPQAKALLQDKDVIAINQDPLGKQGYQLRQGDNFEVWERPLSGLAWAVAVINRQEIGGPRSYTIAVASLGKGVACNPACFITQLLPVKRKLGLYEWTSRLKSHVNPTGTVLLQLENTMQMSLKDLL
modifications: Synthetic Polypeptide sequence of Variant No. 259 of mature Human GLA
B5: 257 (protein)
chain: LDNGLARTPTMGWLHWERFMCNLDCQEEPDSCISEKLFMEMAELMVSEGWKDAGYEYLCIDDCWMAPQRDSEGRLQADPQRFPHGIRQLANYVHSKGLKFGIYADVGNKTCAGFPGSFGYYDIDAQTFADWGVDLLKFDGCYCDSLENLADGYKHMSLALNRTGRSIVYSCEWPLYMWPFQKPNYTEIRQYCNHWRNFADIDDSWASVKSILDWTSFNQETIVDVAGPGGWNDPDMLVIGNFGLSWNQQVTQMALWAIMAAPLFMSNDLRHISPQAKALLQDKDVIAINQDPLGKQGYQLRQGDNFEVWERPLSGLAWAVAMINRQEIGGPRSYTIAVASLGDGVACNPACFITQLLPVKRKLGLYEWTSRLRSHVNPTGTVLLQLENTMQMSLKDLL
modifications: Synthetic Polypeptide sequence of Variant No. 257 of mature Human GLA
B6: 260 (protein)
chain: LDNGLARTPTMGWLHWERFMCNLDCQEEPDSCISEKLFMEMAELMVSEGWKDAGYEYLCIDDCWMAPQRDSEGRLQADPQRFPHGIRQLANYVHSKGLKFGIYADVGNKTCAGFPGSFGYYDIDAQTFADWGVDLLKFDGCYCDSLENLADGYKHMSLALNRTGRSIVYSCEWPLYMWPFQKPNYTEIRQYCNHWRNFADIDDSWASIKSILDWTSFNQERIVDVAGPGGWNDPDMLVIGNFGLSWDQQVTQMALWAIMAAPLFMSNDLRHISPQAKALLQDKDVIAINQDPLGKQGYQLRQGDNFEVWERPLSGLAWAVAMINRQEIGGPRSYTIAVASLGKGVACNPACFITQLLPVKRKLGLYEWTSRLKSHVNPTGTVLLQLENTMQMSLKDLL
modifications: Synthetic Polypeptide sequence of Variant No. 260 of mature Human GLA

Experiments:
Assay type in all cases: biochemical
[1] = HTP-analysis of supernatants pretreated with bovine serum (MUGal hydrolysis); settings: activity of the variant/activity of Rd2BB (SEQ ID NO: 10), yeast culture supernatant
Description: Yeast (INVSc1) cells transformed with vectors expressing GLA and GLA variants using the lithium acetate method were selected on SD-Ura agar plates. After 72 h incubation at 30° C. colonies were placed into the wells of Axygen® 1.1 ml 96-well deep well plates filled with 200 μl/well SD-Ura broth (2 g/L SD-Ura, 6.8 g/L yeast nitrogen base without amino acids [Sigma Aldrich]), 3.06 g/L sodium dihydrogen phosphate, 0.804 g/L disodium hydrogen phosphate, pH 6.0 supplemented with 6% glucose. The cells were allowed to grow for 20-24 hours in a Kuhner shaker (250 rpm, 30° C., and 85% relative humidity). Overnight culture samples (20 μL) were transferred into Corning Costar® 96-well deep plates filled with 380 µL of SD-ura broth supplemented with 2% glucose. The plates were incubated for 66-84 h in a Kuhner shaker (250 rpm, 30° C., and 85% relative humidity). The cells were then pelleted (4000 rpm×20 min), and the supernatants isolated and stored at 4° C. prior to analysis.
GLA variants were challenged with bovine serum to simulate the conditions the variants encounter following infusion into a patient. First, 20 μL of yeast culture supernatant and 80 μL, of bovine serum were added to the wells of a 96-well round bottom plate. The plates were sealed and incubated at 37° C. for 1 h. For the assay, 50 μL of serum-challenged sample was mixed with 25 μL, of 1 M citrate buffer pH 4.3 and 25 μL, of 4 mM MUGal in McIlvaine buffer pH 4.8. The reactions were mixed briefly and incubated at 37° C. for 180 minutes, prior to quenching with 100 μL, of 1 M sodium carbonate. Hydrolysis was analyzed using a SpectraMax® M2 microplate reader monitoring fluorescence (Ex. 355 nm, Em. 448 nm).

[2] = HTP-analysis of yeast culture supernatants, no challenge (MUGal hydrolysis); settings: activity of the variant/activity of Rd2BB (SEQ ID NO: 10), yeast culture supernatant
Procedure, shortened: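 GLA variants expressed in yeast INVSc1, secreted into SD-Ura broth over 66-84 h at 30° C; clarified supernatants tested without challenge. Supernatant mixed with McIlvaine buffer pH 4.8 and 2 mM MUGal (citrate/KCl, pH 4.6), 37° C for 30-180 min, carbonate-quenched, fluorescence Ex 355/Em 448 nm.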

[3] = HTP-analysis of supernatants pretreated with base (MUGal hydrolysis); settings: challenge at pH 7.6; activity of the variant/activity of Rd2BB (SEQ ID NO: 10); yeast culture supernatant
Procedure, shortened: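 Supernatants from INVSc1 yeast expressing GLA variants (SD-Ura, 66-84 h, 30° C) were mixed with McIlvaine buffer pH 7.0-8.2 or 200 mM sodium bicarbonate pH 9.1-9.7 and held 1-18 h at 37° C. Residual activity was then measured on MUGal at pH 4.8/4.3, 37° C, 30-180 min, by fluorescence (Ex 355/Em 448 nm).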

[4] = HTP-analysis of supernatants pretreated with acid (MUGal hydrolysis); settings: challenge at pH 4.2; activity of the variant/activity of Rd2BB (SEQ ID NO: 10); yeast culture supernatant
Procedure, shortened: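 Fluorescence of MUGal hydrolysis (Ex. 355 nm, Em. 448 nm) is read after sodium carbonate quench. The enzyme source is INVSc1 yeast culture supernatant, first exposed to pH 3.3-4.3 McIlvaine buffer at 37° C. for 1-3 h, then reacted at pH 4.8 for 30-180 minutes.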

Molecule	Relative Activity of GLA Variants After Challenge with Serum [1]	Relative Activity of GLA Variants After No Challenge (NC) [2]	Relative Activity of GLA Variants After Challenge at pH 7.6 [3]	Relative Activity of GLA Variants After Challenge at pH 4.2 [4]
B1	+++ (+++ = >2.5 relative activity over Rd2BB (SEQ ID NO: 10))	++ (++ = 1.5 to 2.5 relative activity over Rd2BB (SEQ ID NO: 10))	+++ (+++ = >2.5 relative activity over Rd2BB (SEQ ID NO: 10))	+++ (+++ = >2.5 relative activity over Rd2BB (SEQ ID NO: 10))
B2	+ (+ = 0.5 to 1.5 relative activity over Rd2BB (SEQ ID NO: 10))	++ (++ = 1.5 to 2.5 relative activity over Rd2BB (SEQ ID NO: 10))	++ (++ = 1.5 to 2.5 relative activity over Rd2BB (SEQ ID NO: 10))	++ (++ = 1.5 to 2.5 relative activity over Rd2BB (SEQ ID NO: 10))
B3	++ (++ = 1.5 to 2.5 relative activity over Rd2BB (SEQ ID NO: 10))	+++ (+++ = >2.5 relative activity over Rd2BB (SEQ ID NO: 10))	+++ (+++ = >2.5 relative activity over Rd2BB (SEQ ID NO: 10))	++ (++ = 1.5 to 2.5 relative activity over Rd2BB (SEQ ID NO: 10))
B4	+ (+ = 0.5 to 1.5 relative activity over Rd2BB (SEQ ID NO: 10))	+ (+ = 0.5 to 1.5 relative activity over Rd2BB (SEQ ID NO: 10))	+ (+ = 0.5 to 1.5 relative activity over Rd2BB (SEQ ID NO: 10))	+ (+ = 0.5 to 1.5 relative activity over Rd2BB (SEQ ID NO: 10))
B5	++ (++ = 1.5 to 2.5 relative activity over Rd2BB (SEQ ID NO: 10))	++ (++ = 1.5 to 2.5 relative activity over Rd2BB (SEQ ID NO: 10))	++ (++ = 1.5 to 2.5 relative activity over Rd2BB (SEQ ID NO: 10))	++ (++ = 1.5 to 2.5 relative activity over Rd2BB (SEQ ID NO: 10))
B6	+ (+ = 0.5 to 1.5 relative activity over Rd2BB (SEQ ID NO: 10))	+ (+ = 0.5 to 1.5 relative activity over Rd2BB (SEQ ID NO: 10))	+ (+ = 0.5 to 1.5 relative activity over Rd2BB (SEQ ID NO: 10))	+ (+ = 0.5 to 1.5 relative activity over Rd2BB (SEQ ID NO: 10))

Reference: patent publication US11278600B2, “Human alpha-galactosidase variants” (Codexis, Inc., priority 2014, dated 2022)
